Experimental data: publication PMC11735773

Target: SARS-CoV-2 nucleoprotein (NP) (SARS-CoV-2, UniProt P0DTC9 1-419)

## GGGGGGGGGGGG (structured_RNA, phosphorothioate linkages) [TAMRA-G12(S)]
  binding result: binds
